Test results as given in PMC11170914, “A distinct dimer configuration of a diatom Get3 forming a tetrameric complex with its tail-anchored membrane cargo” (BMC Biology, 2024).

Biological target: the molecule itself
Assay: SEC; recombinant Get3/TA complex from yeast or zebra fish; SEC and SDS-PAGE (Fig. S10); conditions not shown

Protein | stoichiometry N
Get3 from yeast (recombinant Get3/TA complex) (natural protein, UniProt Q12154 1-354, looked up, Get3 of yeast; also called yeast Get3; source: recombinant, purified as Get3/TA complex) MDLTVEPNLHSLITSTTHKWIFVGGKGGVGKTTSSCSIAIQMALSQPNKQFLLISTDPAHNLSDAFGEKFGKDARKVTGMNNLSCMEIDPSAALKDMNDMAVSRANNNGSDGQGDDLGSLLQGGALADLTGSIPGIDEALSFMEVMKHIKRQEQGEGETFDTVIFDTAPTGHTLRFLQLPNTLSKLLEKFGEITNKLGPMLNSFMGAGNVDISGKLNELKANVETIRQQFTDPDLTTFVCVCISEFLSLYETERLIQELISYDMDVNSIIVNQLLFAENDQEHNCKRCQARWKMQKKYLDQIDELYEDFHVVKMPLCAGEIRGLNNLTKFSQFLNKEYNPITDGKVIYELEDKE | 2
Get3 from zebra fish (recombinant Get3/TA complex) (natural protein, Get3 of zebra fish (Danio rerio); also called zebra fish Get3; source: recombinant, purified as Get3/TA complex) not shown | 2
